Assay results: publication PMC10381965

Target: CBF1;CCAN (CENP-LN, CENP-OPQU+, CENP-HIK-TW, CENP-C) (Saccharomyces cerevisiae;Saccharomyces …, UniProt P17106;P38907;P38265;Q06675;Q02732;P53298;P38313;Q12493;Q06162;Q12262;Q12748;P47 …, |)
Assay: cryo-EM structure (3.4 Å); free C0N3 DNA without octamer; topological entrapment, 25 bp contacted; Binding buffer for IK assembly not given in the material; proteins purified in 20 mM Hepes pH 8.0, 300 mM NaCl, 0.5 mM TCEP

B1: C0N3 153 bp (chimeric CEN3/W601) (dsDNA)
DNA 1: ATAAGTCACATGGTGCCGAGGCCGCTCAATTGGTCGTAGACAGCTCTAGCACCGCTTAAACGCACGTACGCGCTGTCCCCCGCGTTTTAATATTAGTGTATTTGATTTCCGAAAGTTAAAAAAGAAATAGTAAGAAATATATATTTCATTGAA
DNA 2: TTCAATGAAATATATATTTCTTACTATTTCTTTTTTAACTTTCGGAAATCAAATACACTAATATTAAAACGCGGGGGACAGCGCGTACGTGCGTTTAAGCGGTGCTAGAGCTGTCTACGACCAATTGAGCGGCCTCGGCACCATGTGACTTAT
  binding result: binds
